Results from publication PMC3045582.
Read-outs that look alike come from different tables or passages of the source.

T1: Hpy188I restriction endonuclease (selenomethionine variant) (UniProt Q9KJ88 1-170)
T1 sequence: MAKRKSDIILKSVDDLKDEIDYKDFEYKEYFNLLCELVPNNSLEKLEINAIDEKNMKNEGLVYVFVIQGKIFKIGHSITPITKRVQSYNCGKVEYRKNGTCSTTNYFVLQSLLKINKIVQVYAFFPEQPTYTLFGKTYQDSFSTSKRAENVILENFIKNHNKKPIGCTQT

T2: Hpy188I restriction endonuclease (native Met) (UniProt Q9KJ88 1-170)
T2 sequence: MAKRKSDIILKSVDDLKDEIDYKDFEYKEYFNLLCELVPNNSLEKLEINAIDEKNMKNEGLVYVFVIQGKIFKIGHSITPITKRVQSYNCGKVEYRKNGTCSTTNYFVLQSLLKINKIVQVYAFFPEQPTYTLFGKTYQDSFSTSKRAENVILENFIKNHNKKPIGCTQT


Assays:
[1] = target: T1, Hpy188I restriction endonuclease …; test: X-ray crystallography
[2] = target: T2, Hpy188I restriction endonuclease …; test: co-crystallization
[3] = target: T1, Hpy188I restriction endonuclease …; test: X-ray crystallography; remark: listed apart in the source

Binder	binding result [1]	binding result [2]	binding result [3]
9-mer target oligoduplex (uncleaved) (dsDNA) DNA 1: GATCTGAAC DNA 2: GTTCAGATC	binds	binds	
9-mer target oligoduplex cleaved in crystal at TCN|GA (product) (dsDNA) DNA 1: GATCT DNA 2: GAAC DNA 3: GTTCA DNA 4: GATC			binds
